Source: paper PMC9282883

Biological target: SARS-CoV-2 RBD WT (for SPR binding assays) (SARS-CoV-2) (UniProt P0DTC2)

Substance: S309 IgG1 (antibody)
- IC50, neutralisation of authentic SARS-CoV-2 (SARS-CoV-2-Nluc) on Vero E6 cells: 0.0789 µg/mL
- IC90, neutralisation of authentic SARS-CoV-2 (SARS-CoV-2-Nluc) on Vero E6 cells: 0.3 µg/mL
